Assay results reported in the nanobody polyreactivity screen of Harvey et al. (2022).

Assay: yeast display, Sf9 membrane polyspecificity reagent, FACS + sequencing; frameworks hold sequencing errors
How it was run: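 A nanobody's polyreactivity label depends on the gate it was sorted from. Yeast display cells were stained with 10% biotinylated, detergent-solubilized Sf9 membrane reagent for 1 hour at 4 °C, enriched on streptavidin microbeads and sorted by FACS. The low and high (top ~1%) gates were set on anti-HA fluorescence for expression and streptavidin fluorescence for reagent binding.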

Sequence | polyreactivity (PSR sort gate)
QVQLVESGGGLVQAGGSLRLSCAASGSTLGYYAMGWYRQAPGKERELVAAIRYSDGNTYYADSVKGRFTISRDNAKNTVYLQMNSLKPEDTAVYYCAARRGRSFRGVFYPFEYWGQGTQVTVSS | high polyreactivity
QVQLVESGGGLVQAGGSLRLSCAASGSTLGYYTMGWYRQAPGKERELVAAISGSGVTTSYADSVKGRFTISRDTAKNTVYLQMNSLKPEDTAVYYCARRYRVGTTGGDYWGQGTQVTVSS | high polyreactivity
QVQLVESGGGLVQAGGSLRLSCAASGSTLIANAMGWYRQAPGKERELVAGITYRGGDITTYADSVKGSFTNSSDNANNTVYLQINTLKPEDTAVYYCAAPVVWPTWARGGYWGQGTQVTVSS | low polyreactivity
QVQLVESGGGLVQAGGSLRLSCAASGSTLIIYAMGWYRQAPGKERELVATISWSGGNTYYADSVKGRFTISRDNAKYTVYLQMNSLKPEDTAVYYCAARWYYYPLLYDYWGQGTQVTVSS | low polyreactivity
QVQLVESGGGLVQAGGSLRLSCAASGSTLIRNVMGWYRQAPGKESELDAAITWSGASTYYADSVKGRFTISRDNAKNTVYLQMNSLKPEDTAVYYCAARALNWSRVARYNYWGQGTQVTVSS | high polyreactivity
QVQLVESGGGLVQAGGSLRLSCAASGSTLITNDMGWYRQAPGKERELVATITYGTGSTYYADSVKGRFTISRDNAKNTVYLQMNSLKPEDTAVYYCNARRNYPKDSDGYDYWGQGTQVTVSS | low polyreactivity
QVQLVESGGGLVQAGGSLRLSCAASGSTLLIYVMGWYRQAPGKERELVAAISKRSGSTYYADSVKGRFTISRDNAKNTVYLHMNSLKPEDTAVYYCATRPYVRWYDYWGQATQVTVSS | high polyreactivity
QVQLVESGGGLVQAGGSLRLSCAASGSTLLTYTMGWYRQAPGKERELVASITTSGGSTYYADSVKGRFTSSRDNAKNTVYLQMNSLKPEDTAVYYWGQGTQVTVSS | low polyreactivity
QVQLVESGGGLVQAGGSLRLSCAASGSTLLWNTMGWYRQAPGKERELVAAISITGSTNYADSVKGRFTISRDNEKNTVYLQMNSLKPEDTAVYYCAAPYGLPWWYGSWGQGTQVTVSS | low polyreactivity
QVQLVESGGGLVQAGGSLRLSCAASGSTLNRNVMGWSRQAPGKERQMVAVITYGVGSTYYADSVKGRFTISRDNAKNTHYIQMNSLKPEDTAVYYCNKDPLVFDYWGQGTQVTVSS | low polyreactivity
QVQLVESGGGLVQAGGSLRLSCAASGSTLNYYAMGWYRQAPGKERELVATIDKSGGSTRYADSVKGRFTISRDNAKNTVYLQMNSLKPEDTAVYYCAVDSPYQHDDYWGQGTQVTVSS | low polyreactivity
QVQLVESGGGLVQAGGSLRLSCAASGSTLPTNAMLWYRQAPGKEREFVAAISDNGGSTYYADSVKGRFTISRDNAKNTVYLQMNSLKPEDTAVYYCAADNFGPEFYYWGQGTQVTVSS | low polyreactivity
QVQLVESGGGLVQAGGSLRLSCAASGSTLPYYAMGWYRQAPGKERELVAAITSSGGDTYYADSVKGRFTISRDNAKNTVYFQMNSLKPEDTAVYYCAKSYSARSTVRKLFYFAYDYWGQGTQVTVSS | low polyreactivity
QVQLVESGGGLVQAGGSLRLSCAASGSTLPYYAMGWYRQAPGKEWELVAAITSSGGDTYYADSVKGRFTISRDNAKNTVYLQMNSLKTEDTAVYYCAKSYSARSTVRKLFYFAYDYWGQGTQVTVSS | low polyreactivity
QVQLVESGGGLVQAGGSLRLSCAASGSTLQNNAMGRYRQAPGKERELVAAISVSDGITYYADSVKGRFTISRDNAKNTVYLQMNSLKPEDTAVYSFAADYSSPWQAVQGDDYWGQGTQVTVSS | low polyreactivity
QVQLVESGGGLVQAGGSLRLSCAASGSTLQRYAMGWYRQAPGKEREFVAAINWSGSNTYYADSVKGRFTISRDNAKNTVYLQMNSLKPEDTAVYYCATNTWLFGGNYWGQGTQVTVSS | high polyreactivity
QVQLVESGGGLVQAGGSLRLSCAASGSTLQSYAMGWYSQAPGKERELVAGIRISGGNTRYADSVKGRFTISRDNAKNTVYLQMNSLKPEDTAVYYCAALTGFYNLRPYGYWGQGTQVTVSS | high polyreactivity
QVQLVESGGGLVQAGGSLRLSCAASGSTLRAYAMGWYRQAPGKERELVAAITRRGGSTSYADSVKGRFTISRDNAKNTVYLQMNSLKPEDTAVYYCARVVVTRHPKSIEYDYWGQGTQVTVSS | high polyreactivity
QVQLVESGGGLVQAGGSLRLSCAASGSTLRGNAMGWYRPAPGKERELVAAITGRGTRTYYADSVKGRFTISRDNAKNTVYLQMNSLKPEDTAVYYCAAKGRLYPGWEYYYWGQGTQVTVSS | high polyreactivity
QVQLVESGGGLVQAGGSLRLSCAASGSTLRPYGMGWYRQATGKERELVPTIRSSSGRTYYADSVKGRFTISRDNAKNTVYLLMNSLKPDDTAVYYCNAKYVWYTQRDAYIYDYWGQGTQVTVSS | high polyreactivity
QVQLVESGGGLVQAGGSLRLSCAASGSTLRRNAMGWYRPAPGKERELVAAISGTGGSTYYADSVKGRFTISRDNAKNTVYLQMNSLKPEDTAVYYCAATGWYYDYDYWGQGTQVTVSS | low polyreactivity
QVQLVESGGGLVQAGGSLRLSCAASGSTLRRYAMGWSRQAPGKERELVAAISGSGDSTYYADSVKGRFTISRDNAKNTVYLQMNSLKPEDTAVYYCNAVYAFNGYDYWGQGTQVTVSS | low polyreactivity

Sequence | polyreactivity (PSR sort gate)
QVQLVESGGGLVQAGGSLRLSCAASGSTLRRYAMGWYRQAPGKERELVAAISGSGDSTYYADSVKGRFTISRDIAKNTVYLQMNSLKPEDTAVYYCNAVYAFNGYDYWGQGTQVTVSS | low polyreactivity
QVQLVESGGGLVQAGGSLRLSCAASGSTLRSYAMGWYRQAPGKERELVAAIDWDGGRTYYADSVKGRFTISRDNAKNTVYLQMNSLKPEDTAVYYCNTSAGWSNGKDEGDFYSGFDYWGQGTQVTVSS | low polyreactivity
QVQLVESGGGLVQAGGSLRLSCAASGSTLRYNTMGWYRQAPGTERELVAAIRGSGSSTYYADSVKGRFTISRDNAKNTVYLQMNSLKPEDTAVYYCAARPRWYTYTRQEYDYWGQGTQVTVSS | high polyreactivity
QVQLVESGGGLVQAGGSLRLSCAASGSTLSDKSIGWYRQAPGKEMELVASISWSGGTYYADSVKGRFTISRDNAKNTVYLQMNSLKPEDTAVYYCAAYIYYNYSRQYLYDYWGQGTQVTVSS | low polyreactivity
QVQLVESGGGLVQAGGSLRLSCAASGSTLSFYAMGWYRQAPGKERELVAAISYSTGTTYYADSVKGRFTISRDNAKNTVYLQMNSLKPEDTAVYYCAVYWQHNSTRYYYWGQGTQVTVSS | high polyreactivity
QVQLVESGGGLVQAGGSLRLSCAASGSTLSHYAMGWYRQAPGKERELVAAINSNGGSTYYADSVKGRFTISRDNAKNTVYLQMNSLKPEDTAVYYCNTYFRYFSFYGRPFDYWGQGTQVTVSS | high polyreactivity
QVQLVESGGGLVQAGGSLRLSCAASGSTLSINAMGGYRQAAGKERELVAGITYSGGSEYYADSVKGRFSISRDNAKNNVYLQMNSMKPEDTAVYYCNKASGVYYGHLDYWRQGTQVTVSS | low polyreactivity
QVQLVESGGGLVQAGGSLRLSCAASGSTLSRYTMGWSRQAPGKERELVAAIRSSGGSTYYADSVKGRFTISRDNAKNTVYLQMNSLKPEDTAVYYCARTQQRTTEREHWIRYYYWGQGTQVTVSS | low polyreactivity
QVQLVESGGGLVQAGGSLRLSCAASGSTLSSYDMGWYRQAPGKERELVASISSGGSTYYADSVKGRFTISRDNAKNTVYLQMNSVKPEDTAVYYCLYWSYDWGQGTQVTVSS | low polyreactivity
QVQLVESGGGLVQAGGSLRLSCAASGSTLSVYVMGWYSQAPGKERELVAAITRGGSTNYADSVKGRFTISRDNAKNTVYLQMISLKPEDTAVYYCAARAFVYYHHGEGSRSGRYYYWGQGTQVTVSS | high polyreactivity
QVQLVESGGGLVQAGGSLRLSCAASGSTLTEYAMGWYRQAPGKEREFVAAISRSAGSTYYADSVKGRFTISRDNAKNTVYLQMNSLKPDDTAVYYCAVAVRVGFDYFSGQADIYYYWGQGTQVTVSS | low polyreactivity
QVQLVESGGGLVQAGGSLRLSCAASGSTLTEYAMGWYRQAPGKEREFVAAISRSAGSTYYADSVKGRFTISRDNAKNTVYLQMNSLKPEETAVYYCAVAVRVGFDYFSGQADIYYYWGQGTQVTVSS | low polyreactivity
QVQLVESGGGLVQAGGSLRLSCAASGSTLTRNAMGLYRQAPGTERELVATITATGGSTYYADSVKGRFTISRDNAKYTVYLQMNSLKTEDTAVYYCAAAYPTYRHYYWGQGTQVTVSS | low polyreactivity
QVQLVESGGGLVQAGGSLRLSCAASGSTLTYNAMGWYRQAPGKERELVAVISARGGRTYYADSVKGRFTISRDNAKNTVYLQMNSLKPEDTAVYYCAAVFYYSYYRITSGDYWGQGTQVTVSS | high polyreactivity
QVQLVESGGGLVQAGGSLRLSCAASGSTLVGNAMGWYRQAPGKERELVATIDLSDDITYYADSVKGRFTISRDKAKNTVYLQMNSLKPEDTAVYYCAAEYYLYSTYTVSYWKYDYWGQGTQVTVSS | high polyreactivity
QVQLVESGGGLVQAGGSLRLSCAASGSTLVIYAMGWYRQAPGKERELVAAINFSDGSTSYADSVKGRFSISRDNAKNTVYLQMNRLKPEDTAVYYLGQGTQVTVSS | low polyreactivity
QVQLVESGGGLVQAGGSLRLSCAASGSTLVIYAMGWYRQAPGKERELVAAINFSDGSTSYADSVKGRFTISRDNAKNTVYLQMNSLKPEDTAVFYWGQGTQVTVSS | low polyreactivity
QVQLVESGGGLVQAGGSLRLSCAASGSTLVIYAMGWYRQAPGKERELVAAINFSDGSTSYADSVKGRFTISRDNSKTTVYFQMNSLKPEDTAVYYWGQGTQVTVSS | low polyreactivity
QVQLVESGGGLVQAGGSLRLSCAASGSTLVRNAMGWSRPAPGKERDLVAAITSSGGRTYYADSVKGRFTISRDTAKNTVYLQMNSLKPEDTAVYYCNRVSRYYLYDYWGQGTQVTVSS | high polyreactivity
QVQLVESGGGLVQAGGSLRLSCAASGSTLVTYAMGWSRQAPGTERELVAAISYSGGSTYADSVKGRFTISRDNAKNTVYLQMNSLKPEDTAVYYCNSDTSVDVRFDYWGQGTQVTVSS | low polyreactivity
QVQLVESGGGLVQAGGSLRLSCAASGSTLVYNDMGWYRQAPGKERELGATITGTDSTYYADSVKGRFTISRDNAKNTVYLQMNSLKPEDTADCAADRAASRPDYDYWGQGTQVTVSS | low polyreactivity
